# Assay results reported in patent US10029000B2, “Uses of IL-12 in hematopoiesis” (University of Southern California, priority 2003, dated 2018).
# Entries after “also recorded” stand apart in the source; their conditions may differ.
# B1: IL-12: Recombinant murine interleukin 12, heterodimeric cytokine (p35+p40), purchased from R&D Systems or PeproTech (protein, UniProt P43431 23-215; P43432 23-335, looked up)
# Interleukin-12 subunit alpha: RVIPVSGPARCLSQSRNLLKTTDDMVKTAREKLKHYSCTAEDIDHEDITRDQTSTLKTCLPLELHKNESCLATRETSSTTRGSCLPPQKTSLMMTLCLGSIYEDLKMYQTEFQAINAALQNHNHQQIILDKGMLVAIDELMQSLNHNGETLRQKPPVGEADPYRVKMKLCILLHAFSTRVVTINRVMGYLSSA
# Interleukin-12 subunit beta: MWELEKDVYVVEVDWTPDAPGETVNLTCDTPEEDDITWTSDQRHGVIGSGKTLTITVKEFLDAGQYTCHKGGETLSHSHLLLHKKENGIWSTEILKNFKNKTFLKCEAPNYSGRFTCSWLVQRNMDLKFNIKSSSSSPDSRAVTCGMASLSAEKVTLDQRDYEKYSVSCQEDVTCPTAEETLPIELALEARQQNKYENYSTSFFIRDIIKPDPPKNLQMKPLKNSQVEVSWEYPDSWSTPHSYFSLKFFVRIQRKKEKMKETEEGCNQKGAFLVEKTSTEVQCKGGNVCVQAQDRYYNSSCSKWACVPCRVRS
# Legend:
# lethally irradiated mice = assay: Radioprotection assay: survival of mice after total body lethal irradiation; format: in vivo, mice (C57BL/6J); conditions: for animals with long-term survival (more than one year): 100 ng/mouse (5 ug/Kg)
# Protocol: Mice received recombinant murine IL-12 (100 ng/mouse (which is about 5 ug/kg on average), intravenous injection) before (24 hours) or after (1 hour) lethal dose radiation (1000 rad). Mice in control group received equal volume of PBS buffer. Survival rate were analyzed by Kaplan-Meier method and p value was calculated using Log Rank Test.
# To determine the minimum effective radioprotective dose of IL-12, different dose of IL-112 were administered to lethally irradiated animals before (24 hours before) or post (within one hour) lethal dose ionizing radiation.
# IL-12 was administrated to mice at different doses 24 hours before radiation to determine if there is a dose dependent relationship between the concentration of IL-12 administration and survival from lethal irradiation.
# To further explore the relationship of IL-12 hematopoietic rescue effect as it may relate to the time of administration, IL-12 was administrated to lethally irradiated animals at different time before and after the radiation. The following time points were tested: −48, −36, −24, and −12 hours before radiation, or +1, +12, +24, and +36 hours post radiation.
# A study was conducted to determine if the radioprotective effect of IL-12 administration is specific and INF- ? independent. […] Also, an assessment was made to determine if there was a synergistic effect between GM-CSF and IL-12.
# Mice were provided with acid water for one week before the radioprotection assay. Cytokines, diluted in phosphate buffered saline (PBS), pH 7.4, were intravenously injected into mice before or after total body lethal irradiation (TBI) at the specified times. Control group mice were injected with PBS buffer. For TBI, mice were either exposed twice to ionizing irradiation ( ? -ray from Cesium 137) at 500 rad dose with a 3 hour interval, or one time at a dose of 1000 rad in a Gammacell 40 machine from Atomic Energy of Canada LTD (Kanafa, Ontario, Canada). The ? -ray exposure rate is 1 Gy/min. […] After irradiation, mice were given water containing antibiotics. For the survival curve, the Kaplan-Meier method was used. Each experiment was repeated three or more times.
# bone marrow = assay: Bone marrow histology (H&E) after lethal dose radiation; format: in vivo, mice; conditions: 5 ug/kg
# Protocol: At different time post IL-12 treatment (5 ug/kg) and lethal dose radiation (1, 12 and 14 days), femurs were isolated, fixed in 10% formalin, decalcified and processed for paraffin section and for Hematoxylin & Eosin staining. FIG. 2A: 1 day post radiation; FIG. 2B: 12 days post radiation; FIG. 2C: 14 days post radiation. […] (200× magnification)
# (§1) To determine if IL-112 sensitizes intestinal tract to ionizing radiation, two different doses of IL-12 and radiation were used in radioprotection assay, namely 5 ug/kg and 50 ug/kg of IL-12 and two different doses of radiation were also used. Subsequent to the administration of IL-12 and radiation, both bone marrow and the small intestine were removed from mice who received either 5 ug/kg or 50 ug/kg of IL-12 and a lethal dose radiation for histology study. The lethal doses were either 1000 rad or 1600 rad.
# (§2) Mice were treated with IL-12 (100 ng/mouse) or PBS 24 hours before receiving lethal irradiation. At different days after lethal irradiation, femurs, spleens and small intestines were removed and fixed in 10% formalin buffer for 24 hours. Subsequently, bone marrow was decalcified in Rapid Decalcifier for about 30 minutes. Samples and tissues then were embedded in TissuePrep 2 paraffin wax for micro-section at 5 μm for routine Hematoxylin and Eosin staining. Some small intestines were treated with PAS (Periodic Acid Schiff) staining.
# small intestine = assay: Small intestine histology after lethal dose radiation; format: in vivo, mice; conditions: 5 ug/kg, 1000 rad or 1600 rad (10 and 16 Gy), 4 days post radiation
# Protocol: 4 days post radiation, small intestine were removed, fixed for PAS staining for mice received 10 Gy (Periodic Acid Schiff), H&E staining for mice received 16 Gy. […] There is no obvious histological damage in mice who received 10 Gy radiation. (200× magnification)
# as §1, §2
# peripheral blood cells = assay: Peripheral blood cell counts after lethal or sublethal irradiation; format: in vivo, mice (C57BL/6J)
# Excerpt: After lethal dose radiation (10 Gy), the full blood cell count dropped to lowest point for both IL-12 treated and non-treated mice. However, 11-12 treated mice start to recover at day 14 post radiation while the control animals died out. It is noteworthy that the recovery is multi-lineage, including white blood cell, red blood cell and platelets.
# Here too, the recovery is broad range and encompasses all blood lineages and blood cell types. […] This effect is somewhat better when IL-12 was administrated 24 hours before radiation than IL-12 administrated after radiation.
# For peripheral blood cell counts, 6-8 week old female C57BL/6J mice received an i.v. injection of IL-12 before or after lethal (1000 rad) or sub-lethal (500 rad) irradiation. 10 ul blood was taken from the tail to do blood cell count analyses in a MASCOT Multispecies Hematology Systems (CDC Technologies, Oxford, Conn.) at different days after irradiation. Each group had at least 3 mice.
# [1] = cytokine given 1 hour post lethal dose radiation
molecule,measurement,setting,value
B1,animals with long-term survival (more than one year),lethally irradiated mice; 24 hours before lethal radiation,95%
same,animals with long-term survival (more than one year),lethally irradiated mice; post lethal radiation,75%
same,"survival difference versus control (Kaplan-Meier, Log Rank Test)","lethally irradiated mice; 100 ng/mouse i.v., 24 hours before or 1 hour after 1000 rad, p<0.001",statistically significant; also recorded: significant better survival
same,Survives (30 days),"lethally irradiated mice; IL-12 dose 5 ng/mouse, 24 hours before radiation, 5 mice",0
same,Survival rate (%),"lethally irradiated mice; IL-12 dose 5 ng/mouse, 24 hours before radiation, 30 days",0%
same,Survives (30 days),"lethally irradiated mice; IL-12 dose 10 ng/mouse, 24 hours before radiation, 5 mice",0
same,Survival rate (%),"lethally irradiated mice; IL-12 dose 10 ng/mouse, 24 hours before radiation, 30 days",0%
same,Survives (30 days),"lethally irradiated mice; IL-12 dose 25 ng/mouse, 24 hours before radiation, 5 mice",2
same,Survival rate (%),"lethally irradiated mice; IL-12 dose 25 ng/mouse, 24 hours before radiation, 30 days",40%
same,Survives (30 days),"lethally irradiated mice; IL-12 dose 50 ng/mouse, 24 hours before radiation, 5 mice",3
same,Survival rate (%),"lethally irradiated mice; IL-12 dose 50 ng/mouse, 24 hours before radiation, 30 days",60%
same,Survives (30 days),"lethally irradiated mice; IL-12 dose 100 ng/mouse, 24 hours before radiation, 5 mice",4
same,Survival rate (%),"lethally irradiated mice; IL-12 dose 100 ng/mouse, 24 hours before radiation, 30 days",80%
same,Survives (30 days),"lethally irradiated mice; IL-12 dose 200 ng/mouse, 24 hours before radiation, 5 mice",3
same,Survival rate (%),"lethally irradiated mice; IL-12 dose 200 ng/mouse, 24 hours before radiation, 30 days",60%
same,Survival rate (%),lethally irradiated mice; [1],80%
same,radioprotective effect,lethally irradiated mice; [1],only cytokine tested that can protect mice from lethal dose radiation
same,Survives,"lethally irradiated mice; cytokine given 1 hour post lethal dose radiation, 4-5 mice per group",4
same,survival at higher dose,lethally irradiated mice; higher dose (up to 50 ug/kg) compared with 5 ug/kg,did not yield greater survival
same,Survival rate (%),lethally irradiated mice; injection 1 hr after lethal irradiation,80%
same,Survives,"lethally irradiated mice; injection 1 hr after lethal irradiation, 5 mice",4
same,Survival rate (%),lethally irradiated mice; injection 12 hrs after lethal irradiation,0%
same,Survives,"lethally irradiated mice; injection 12 hrs after lethal irradiation, 5 mice",0
same,Survival rate (%),lethally irradiated mice; injection 12 hrs before lethal irradiation,20%
same,Survives,"lethally irradiated mice; injection 12 hrs before lethal irradiation, 10 mice",2
same,Survival rate (%),lethally irradiated mice; injection 24 hrs after lethal irradiation,20%
same,Survives,"lethally irradiated mice; injection 24 hrs after lethal irradiation, 10 mice",2
same,Survival rate (%),lethally irradiated mice; injection 24 hrs before lethal irradiation,100%
same,Survives,"lethally irradiated mice; injection 24 hrs before lethal irradiation, 10 mice",10
same,Survival rate (%),lethally irradiated mice; injection 36 hrs after lethal irradiation,0%
same,Survives,"lethally irradiated mice; injection 36 hrs after lethal irradiation, 5 mice",0
same,Survival rate (%),lethally irradiated mice; injection 36 hrs before lethal irradiation,0%
same,Survives,"lethally irradiated mice; injection 36 hrs before lethal irradiation, 10 mice",0
same,Survival rate (%),lethally irradiated mice; injection 48 hrs before lethal irradiation,0%
same,Survives,"lethally irradiated mice; injection 48 hrs before lethal irradiation, 10 mice",0
same,best administration time for radioprotection,lethally irradiated mice; lethal dose radiation,24 hours before or 1 hour post radiation
same,optimal radioprotective dose (best survival rate),"lethally irradiated mice; mice, lethal dose radiation",5 µg/kg
same,bone marrow cellularity versus control,bone marrow; day 1 post lethal radiation,significant higher cellularity
same,bone marrow histological structure versus control,bone marrow; day 7 and day 10 post radiation,no significant difference
same,bone marrow colonies,bone marrow; day 12 post radiation,colonies were observed
same,bone marrow recovery,bone marrow; day 14 post radiation,full recovery of bone marrow cellularity; also recorded: significant regeneration
same,small intestine histology versus control,small intestine,no significant histological difference
same,time to reach normal blood cell count,peripheral blood cells; lethal dose radiation (10 Gy),about 30 days post radiation
same,day at which blood cell counts start to recover,"peripheral blood cells; lethal dose radiation (10 Gy), 100 ng/mouse",≤ 14 day post radiation
same,day at which blood cell counts start to recover,"peripheral blood cells; lethal dose radiation (10 Gy), 100 ng/mouse, listed as 11-12",14 day post radiation
same,blood cell count recovery versus control,"peripheral blood cells; sublethal radiation (500 rad), 100 ng/mouse",accelerates the blood cell count recovery
same,"red blood cell, platelet, white blood cell and monocyte versus control","peripheral blood cells; sublethal radiation (500 rad), day 5 and 8 post radiation, p<0.05",statistically higher
